In US7115556B2, “Use of anti-prolactin agents to treat proliferative conditions” (Greenville Hospital System, priority 1998, dated 2006):

Tests used:
[1] = biological target: T1, hPRLR (Homo sapiens, UniProt P16471); settings: Goffin et al., 1996; cited from earlier work
T1 sequence (P16471 25-622): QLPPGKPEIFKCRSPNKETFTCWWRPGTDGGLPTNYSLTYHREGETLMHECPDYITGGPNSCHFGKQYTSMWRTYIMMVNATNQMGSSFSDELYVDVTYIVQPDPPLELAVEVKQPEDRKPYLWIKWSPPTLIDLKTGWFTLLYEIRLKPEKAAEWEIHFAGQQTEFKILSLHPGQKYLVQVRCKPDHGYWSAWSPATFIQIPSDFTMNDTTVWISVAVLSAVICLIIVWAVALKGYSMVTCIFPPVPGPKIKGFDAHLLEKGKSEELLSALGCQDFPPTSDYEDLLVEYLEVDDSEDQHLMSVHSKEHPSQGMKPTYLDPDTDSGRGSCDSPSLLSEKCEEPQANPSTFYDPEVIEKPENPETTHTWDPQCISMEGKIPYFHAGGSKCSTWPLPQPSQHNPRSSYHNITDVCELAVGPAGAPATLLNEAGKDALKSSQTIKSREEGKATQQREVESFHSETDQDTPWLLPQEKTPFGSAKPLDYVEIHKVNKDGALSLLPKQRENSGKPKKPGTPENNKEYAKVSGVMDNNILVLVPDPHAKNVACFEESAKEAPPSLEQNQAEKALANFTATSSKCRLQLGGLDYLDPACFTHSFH

[2] = test system: prostate cancer cells; test: TUNEL assay, prostate cancer cells; format: cell-based, human; settings: 250 ng hPRL-G129R, 24 hours
Procedure: (§1) Terminal deoxynucleotidly transferase mediated dUTP nick end labeling (TUNEL) assay. Nicks of the fragmented DNA are labeled at their 3-OH ends. The fluorescein-labeled dUTP is incorporated at the 3-OH ends by using the enzyme terminal deoxynucleotidyl transferase. After the assigned period of treatment the chambers were dismantled as per the manufacturer's instructions and the TUNEL assay (Apoptosis detection system, Fluorescein- Promega) was performed as per the manufacturer's instructions. The slide was examined under a FITC filter using an Olympus IX 70 microscope system.
The samples were in duplicate and each sample constituted about 2 million cells

[3] = test system: MDA-MB-134 cells; test: TUNEL assay, MDA-MB-134; format: cell-based, human; settings: 250 ng G129R, 24 hours
Procedure: (§2) Cell Culture. T-47D cells obtained from ATCC were grown in RPMI 1640 (phenol red free), supplemented with 10% FBS (GIBCO BRL). BT-474 cells were grown in RPMI 1640 medium (phenol red free) supplemented with 10% FBS and ATCC recommended supplements. MCF-7 cells were grown in DMEM medium (phenol red free), supplemented with 10% FBS. The cells were grown at 37° C. in a humid atmosphere in the presence of 5% CO2. The MDA-MB-134 cells were grown in Leibovitz's L-15 medium supplemented with 20% FBS and grown in CO2 free atmosphere. The breast cancer cells were trypsinized (0.02% Trypsin—EDTA) and grown in their respective media (phenol red free) supplemented with 10% CSS (Charcoal stripped serum) for a week. Subsequently the cells were trypsinized again and plated onto an 8 chambered slide system (Lab Tek II) at a confluence of 60–70% per chamber. The next day treatments were performed on the breast cancer cells using their respective media(phenol red free), supplemented with 1% CSS. The MDA-MB-134 VI cells were grown in phenol red containing medium, but with the same serum conditions as the other breast cancer cells.
Terminal deoxynucleotidly transferase mediated dUTP nick end labeling (TUNEL) assay. Nicks of the fragmented DNA are labeled at their 3-OH ends. The fluorescein-labeled dUTP is incorporated at the 3-OH ends by using the enzyme terminal deoxynucleotidyl transferase. […]

[4] = test system: T47-D cells; test: Co-culture with L-G129R cells, T47-D; format: cell-based, human; settings: T47-D co-cultured with L-G129R cells
Text: The co-culture experimental set-up provides a sustained presence of biologically active hPRL-G129R, thereby resulting in a maximal response in these tumor cells.

[5] = biological target: T2, Caspase-3 (Homo sapiens, UniProt P42574); test: ApopAlert CPP32/Caspase-3 assay in T-47D cells; format: cell-based; settings: 250 ng/ml, 2 h, with DEVD-CHO control
T2 construct: endogenous in cells; host or cells: T-47D
T2 sequence (P42574 29-277): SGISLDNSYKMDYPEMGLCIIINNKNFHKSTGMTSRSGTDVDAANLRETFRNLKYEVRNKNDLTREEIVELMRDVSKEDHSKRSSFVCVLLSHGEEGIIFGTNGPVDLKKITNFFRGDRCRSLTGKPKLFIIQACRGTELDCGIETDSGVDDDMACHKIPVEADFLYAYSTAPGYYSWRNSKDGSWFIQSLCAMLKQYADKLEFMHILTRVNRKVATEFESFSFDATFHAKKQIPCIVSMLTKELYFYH
Procedure: FIG. 24. Induction of Caspase-3 by bPRL-G129R. The effect of hPRL-G129R on Caspase-3 activation in T-47D cells using an ApopAlert CPP32/Caspase-3 assay kit (Clontech, Palo Alto, Calif.) is shown. T-47D cells were treated with 250 ng/ml of hPRL-G129R for 2 h. […] The samples were in duplicate and each sample constituted about 2 million cells.
In addition, the effect of hPRL-G129R on Caspase-3 activation was assayed in T-47D cells using an ApopAlert CPP32/Caspase-3 assay kit (Clontech, Palo Alto, Calif.) as presented in FIG. 24. T-47D cells were treated with 250 ng/ml of hPRL-G129R for 2 h.

[6] = test system: T47D human breast cancer cells; test: Mixed cell culture assay with transfected L cells, T47D; format: cell-based
Text: For certain experiments, a mixed cell culture assay was used, diagramatically represented in FIG. 6. In this assay, breast cancer cells were co-cultured with expressor cells which had been transfected with nucleic acid encoding PRL or a PRL variant and expressing those recombinant proteins. By varying the number of expressor cells, the amount of PRL or PRL variant present in the mixed cell culture was increased or decreased. […] In certain wells, which served as a control, no expresser cells were added. Then, increasing numbers of expresser cells (transfected L cells expressing either HPRL (L-PRL) or hPRLA (L-PRLA)) were added to breast cancer cell-containing wells to create mixed cultures. The same numbers of expressor cells were cultured in parallel (without T47D cells) to serve as controls. After culturing under standard conditions for a period of time, the number of cells present in the wells was counted, and the number of L cells in the corresponding control culture was subtracted. The resulting number could then be compared to the number of T47D cells in the T47D control culture to evaluate the effects of the recombinant product on breast cancer cell proliferation.

[7] = test system: BT-474 cells; test: TUNEL assay, BT-474; format: cell-based, human
Procedure: as §2, §1

B1: hPRL-G129R: variant of human prolactin having a substitution of the glycine at position 129 with an arginine residue; prolactin receptor antagonist (protein)
chain: LPICPGGAARCQVTLRDLFDRAVVLSHYIHNLSSEMFSEFDKRYTHGRGFITKAINSCHTSSLATPEDKEQAQQMNQKDFLSLIVSILRSWNEPLYHLVTEVRGMQEAPEAILSKAVEIEEQTKRLLERMELIVSQVHPETKENEIYPVWSGLPSLQMADEESRLSAYYNLLHCLRRDSHKIDNYLKLLKCRIIHNNNC
[1]
  effect in PRLR reporter gene assay: antagonist effect
[2]
  apoptosis of two prostate cancer cells: underwent apoptosis
[3]
  induction of apoptosis DNA fragmentation: induced apoptosis
[4]
  inhibition of cell proliferation in co-culture: Complete inhibition
[5]
  Caspase-3 activation: Caspase-3 induction
[6]; T47D, three days, effect greater than on MCF-7
  effect on proliferation in mixed cell culture: inhibitory effect
[6]; co-culture with L cells expressing hPRLA, 24 h to five days
  inhibition of T47D proliferation: up to 100%
[7]; 250 ng G129R, 24 hours
  induction of apoptosis DNA fragmentation: induced apoptosis
[7]; BT-474 cells
  apoptosis and hPRL competition, as in T-47D: same results
